Values quoted from earlier work in publication PMC5403572.

Key:
[1] = molecular target: Asp228 (UniProt position 289, DKSIVDSGTTN); experiment: kinetics; conditions: apo (free) enzyme
[2] = molecular target: Asp32 (UniProt position 93, LNILVDTGSSN); experiment: kinetics; conditions: apo (free) enzyme

In the case of “Beta-secretase 1 (BACE1, memapsin 2) (Homo sapiens)”, the pKa [1] is given as 3.5 and the pKa [2] is given as 5.2.
